Experimental data as given in IntAct's records for PubMed 11027267.

B1: KRR1 small subunit processome component (Saccharomyces cerevisiae), P25586 (parent)
chain: MVSTHNRDKPWDTDDIDKWKIEEFKEEDNASGQPFAEESSFMTLFPKYRESYLKTIWNDVTRALDKHNIACVLDLVEGSMTVKTTRKTYDPAIILKARDLIKLLARSVPFPQAVKILQDDMACDVIKIGNFVTNKERFVKRRQRLVGPNGNTLKALELLTKCYILVQGNTVSAMGPFKGLKEVRRVVEDCMKNIHPIYHIKELMIKRELAKRPELANEDWSRFLPMFKKRNVARKKPKKIRNVEKKVYTPFPPAQLPRKVDLEIESGEYFLSKREKQMKKLNEQKEKQMEREIERQEERAKDFIAPEEEAYKPNQN
partner: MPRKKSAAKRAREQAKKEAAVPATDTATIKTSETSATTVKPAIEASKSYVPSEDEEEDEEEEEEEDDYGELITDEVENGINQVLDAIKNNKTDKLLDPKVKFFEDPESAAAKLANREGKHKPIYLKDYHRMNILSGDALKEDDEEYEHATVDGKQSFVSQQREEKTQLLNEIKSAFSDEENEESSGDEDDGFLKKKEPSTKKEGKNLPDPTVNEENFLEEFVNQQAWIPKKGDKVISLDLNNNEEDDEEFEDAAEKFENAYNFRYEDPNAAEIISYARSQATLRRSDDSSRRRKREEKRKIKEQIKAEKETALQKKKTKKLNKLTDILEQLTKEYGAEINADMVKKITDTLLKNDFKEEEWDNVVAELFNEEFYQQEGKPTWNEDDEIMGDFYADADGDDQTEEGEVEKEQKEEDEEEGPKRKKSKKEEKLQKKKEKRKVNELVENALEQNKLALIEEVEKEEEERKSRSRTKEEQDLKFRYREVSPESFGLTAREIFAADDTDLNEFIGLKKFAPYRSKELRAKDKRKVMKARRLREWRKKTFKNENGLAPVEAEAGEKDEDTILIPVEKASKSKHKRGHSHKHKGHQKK

Variants of: B1
Details: with kri1_yeast KRI1, P42846

Row | effect of a mutation on the interaction | Variant
1 | decreasing interaction | F45L;L95S;R207G
2 | decreasing interaction | K20E;K66N;C162R;D261A
